This passage reports fold decrease in binding affinity against the 2C peptide results from publication PMC9335266.

The target in this test is TRIM7^B30.2 (PRY-SPRY domain of human TRIM7, residues 338-511) (human) (UniProt Q9C029). The test is described as follows: ITC.

“2C peptide with F−2 replaced by a positively charged residue (R−2)”: the fold decrease in binding affinity against the 2C peptide is > 50 fold. The result for “2C peptide with F−2 replaced by polar serine (S−2)” reads > 50 fold; that for 2C peptide with F−2 substituted by Ala, 8 fold.

Substance “2C peptide with F−2 substituted by an acidic residue (D−2)” gave a fold decrease in binding affinity against the 2C peptide of 8 to 15 fold.
